Reference: patent publication US20260001928A1 (CORTERIA PHARMACEUTICALS, priority 2022, published 2026)
*1 amine or outer side, *2 acyl side, *3 side chain or, on linkers, in order; H or OH if unused. Side-chain parts run from the residue outwards. [ ]: non-standard residue; d: D form. The star is where a group is joined. C18 diacid = O=C(O)CCCCCCCCCCCCCCCCC(=O)*; C16 diacid = O=C(O)CCCCCCCCCCCCCCC(=O)*; γGlu = O=C(O)[C@H](CCC(=O)[*:2])N[*:1]; Pentanoyl = CCCCC(=O)*; AEEA = NCCOCCOCC(=O)O; Aib = CC(C)(N)C(=O)O; Propionyl = CCC(=O)*; Butyryl = CCCC(=O)*

T1: CRF1R receptor (UniProt P34998 24-415, limits assumed)
T1 sequence (looked up): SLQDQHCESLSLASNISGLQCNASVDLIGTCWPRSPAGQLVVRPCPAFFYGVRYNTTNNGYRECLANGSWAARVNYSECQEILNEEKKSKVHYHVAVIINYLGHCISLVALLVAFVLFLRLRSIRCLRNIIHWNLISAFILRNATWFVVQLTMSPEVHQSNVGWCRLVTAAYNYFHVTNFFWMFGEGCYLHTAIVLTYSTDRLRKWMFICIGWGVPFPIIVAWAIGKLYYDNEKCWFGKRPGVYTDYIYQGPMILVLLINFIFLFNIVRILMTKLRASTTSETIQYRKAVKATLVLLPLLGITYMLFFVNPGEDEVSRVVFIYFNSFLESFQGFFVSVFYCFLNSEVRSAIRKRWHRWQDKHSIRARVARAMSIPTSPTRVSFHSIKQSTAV


How the values were obtained:
CRF1R receptor = molecular target: T1, CRF1R receptor; test: cell-based or functional assay
[1] = molecular target: human corticotropin-releasing factor 2a (CRF2a receptor) (human), Q13324; test: cell-based or functional assay
Sequence of human corticotropin-releasing factor 2a (CRF2a receptor) (human), Q13324 (Q13324 20-411): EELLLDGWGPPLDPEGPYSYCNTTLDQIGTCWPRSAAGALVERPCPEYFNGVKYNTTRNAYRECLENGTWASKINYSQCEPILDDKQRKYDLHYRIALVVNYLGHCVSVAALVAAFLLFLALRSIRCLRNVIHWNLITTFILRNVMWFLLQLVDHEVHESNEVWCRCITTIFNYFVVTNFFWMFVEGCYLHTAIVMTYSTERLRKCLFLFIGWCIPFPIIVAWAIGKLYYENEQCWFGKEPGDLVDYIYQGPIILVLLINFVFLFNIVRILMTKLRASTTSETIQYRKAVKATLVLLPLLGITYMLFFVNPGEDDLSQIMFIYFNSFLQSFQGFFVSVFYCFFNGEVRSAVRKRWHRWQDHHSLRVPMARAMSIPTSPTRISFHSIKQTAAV

| Emax (% I) (CRF1R receptor) | EC50 [nM] (cAMP) [1] | Binder |
| --- | --- | --- |
| 13% | 0.23 nM | Propionyl-VLSLD[dV]PIKLK([γGlu-C16 diacid])KILLEQEKQKKQREQAETNKQILAQV-NH2 (SMILES CCC(=O)N[C@H](C(=O)N[C@@H](CC(C)C)C(=O)N[C@@H](CO)C(=O)N[C@@H](CC(C)C)C(=O)N[C@@H](CC(=O)O)C(=O)N[C@@H](C(=O)N1CCC[C@H]1C(=O)N[C@H](C(=O)N[C@@H](CCCCN)C(=O)N[C@@H](CC(C)C)C(=O)N[C@@H](CCCCNC(=O)CC[C@H](NC(=O)CCCCCCCCCCCCCCC(=O)O)C(=O)O)C(=O)N[C@@H](CCCCN)C(=O)N[C@H](C(=O)N[C@@H](CC(C)C)C(=O)N[C@@H](CC(C)C)C(=O)N[C@@H](CCC(=O)O)C(=O)N[C@@H](CCC(N)=O)C(=O)N[C@@H](CCC(=O)O)C(=O)N[C@@H](CCCCN)C(=O)N[C@@H](CCC(N)=O)C(=O)N[C@@H](CCCCN)C(=O)N[C@@H](CCCCN)C(=O)N[C@@H](CCC(N)=O)C(=O)N[C@@H](CCCNC(=N)N)C(=O)N[C@@H](CCC(=O)O)C(=O)N[C@@H](CCC(N)=O)C(=O)N[C@@H](C)C(=O)N[C@@H](CCC(=O)O)C(=O)N[C@H](C(=O)N[C@@H](CC(N)=O)C(=O)N[C@@H](CCCCN)C(=O)N[C@@H](CCC(N)=O)C(=O)N[C@H](C(=O)N[C@@H](CC(C)C)C(=O)N[C@@H](C)C(=O)N[C@@H](CCC(N)=O)C(=O)N[C@H](C(N)=O)C(C)C)[C@@H](C)CC)[C@@H](C)O)[C@@H](C)CC)[C@@H](C)CC)C(C)C)C(C)C) [SEQ ID NO 35] |
| 10% | 3.55 nM | Ac-IVLSLD[dV]PIKLK([γGlu-C16 diacid])Q[Aib]LLKQERQKKQREQAEKNVQILEQV-NH2 (SMILES CC[C@H](C)[C@H](NC(C)=O)C(=O)N[C@H](C(=O)N[C@@H](CC(C)C)C(=O)N[C@@H](CO)C(=O)N[C@@H](CC(C)C)C(=O)N[C@@H](CC(=O)O)C(=O)N[C@@H](C(=O)N1CCC[C@H]1C(=O)N[C@H](C(=O)N[C@@H](CCCCN)C(=O)N[C@@H](CC(C)C)C(=O)N[C@@H](CCCCNC(=O)CC[C@H](NC(=O)CCCCCCCCCCCCCCC(=O)O)C(=O)O)C(=O)N[C@@H](CCC(N)=O)C(=O)NC(C)(C)C(=O)N[C@@H](CC(C)C)C(=O)N[C@@H](CC(C)C)C(=O)N[C@@H](CCCCN)C(=O)N[C@@H](CCC(N)=O)C(=O)N[C@@H](CCC(=O)O)C(=O)N[C@@H](CCCNC(=N)N)C(=O)N[C@@H](CCC(N)=O)C(=O)N[C@@H](CCCCN)C(=O)N[C@@H](CCCCN)C(=O)N[C@@H](CCC(N)=O)C(=O)N[C@@H](CCCNC(=N)N)C(=O)N[C@@H](CCC(=O)O)C(=O)N[C@@H](CCC(N)=O)C(=O)N[C@@H](C)C(=O)N[C@@H](CCC(=O)O)C(=O)N[C@@H](CCCCN)C(=O)N[C@@H](CC(N)=O)C(=O)N[C@H](C(=O)N[C@@H](CCC(N)=O)C(=O)N[C@H](C(=O)N[C@@H](CC(C)C)C(=O)N[C@@H](CCC(=O)O)C(=O)N[C@@H](CCC(N)=O)C(=O)N[C@H](C(N)=O)C(C)C)[C@@H](C)CC)C(C)C)[C@@H](C)CC)C(C)C)C(C)C) [SEQ ID NO 18] |
| 22% | 0.14 nM | Butyryl-VLSLD[dV]PIKLK([γGlu-C16 diacid])KILLEQEKQKKQREQAETNKQILAQV-NH2 (SMILES CCCC(=O)N[C@H](C(=O)N[C@@H](CC(C)C)C(=O)N[C@@H](CO)C(=O)N[C@@H](CC(C)C)C(=O)N[C@@H](CC(=O)O)C(=O)N[C@@H](C(=O)N1CCC[C@H]1C(=O)N[C@H](C(=O)N[C@@H](CCCCN)C(=O)N[C@@H](CC(C)C)C(=O)N[C@@H](CCCCNC(=O)CC[C@H](NC(=O)CCCCCCCCCCCCCCC(=O)O)C(=O)O)C(=O)N[C@@H](CCCCN)C(=O)N[C@H](C(=O)N[C@@H](CC(C)C)C(=O)N[C@@H](CC(C)C)C(=O)N[C@@H](CCC(=O)O)C(=O)N[C@@H](CCC(N)=O)C(=O)N[C@@H](CCC(=O)O)C(=O)N[C@@H](CCCCN)C(=O)N[C@@H](CCC(N)=O)C(=O)N[C@@H](CCCCN)C(=O)N[C@@H](CCCCN)C(=O)N[C@@H](CCC(N)=O)C(=O)N[C@@H](CCCNC(=N)N)C(=O)N[C@@H](CCC(=O)O)C(=O)N[C@@H](CCC(N)=O)C(=O)N[C@@H](C)C(=O)N[C@@H](CCC(=O)O)C(=O)N[C@H](C(=O)N[C@@H](CC(N)=O)C(=O)N[C@@H](CCCCN)C(=O)N[C@@H](CCC(N)=O)C(=O)N[C@H](C(=O)N[C@@H](CC(C)C)C(=O)N[C@@H](C)C(=O)N[C@@H](CCC(N)=O)C(=O)N[C@H](C(N)=O)C(C)C)[C@@H](C)CC)[C@@H](C)O)[C@@H](C)CC)[C@@H](C)CC)C(C)C)C(C)C) [SEQ ID NO 36] |

Further lines, the binder ahead of its results:

| Binder | Emax (% I) (CRF1R receptor) | EC50 [nM] (cAMP) [1] |
| --- | --- | --- |
| Pentanoyl-VLSLD[dV]PIKLK([γGlu-C16 diacid])Q[Aib]LLKQERQKKQREQAEKNVQILEQV-NH2 (SMILES CCCCC(=O)N[C@H](C(=O)N[C@@H](CC(C)C)C(=O)N[C@@H](CO)C(=O)N[C@@H](CC(C)C)C(=O)N[C@@H](CC(=O)O)C(=O)N[C@@H](C(=O)N1CCC[C@H]1C(=O)N[C@H](C(=O)N[C@@H](CCCCN)C(=O)N[C@@H](CC(C)C)C(=O)N[C@@H](CCCCNC(=O)CC[C@H](NC(=O)CCCCCCCCCCCCCCC(=O)O)C(=O)O)C(=O)N[C@@H](CCC(N)=O)C(=O)NC(C)(C)C(=O)N[C@@H](CC(C)C)C(=O)N[C@@H](CC(C)C)C(=O)N[C@@H](CCCCN)C(=O)N[C@@H](CCC(N)=O)C(=O)N[C@@H](CCC(=O)O)C(=O)N[C@@H](CCCNC(=N)N)C(=O)N[C@@H](CCC(N)=O)C(=O)N[C@@H](CCCCN)C(=O)N[C@@H](CCCCN)C(=O)N[C@@H](CCC(N)=O)C(=O)N[C@@H](CCCNC(=N)N)C(=O)N[C@@H](CCC(=O)O)C(=O)N[C@@H](CCC(N)=O)C(=O)N[C@@H](C)C(=O)N[C@@H](CCC(=O)O)C(=O)N[C@@H](CCCCN)C(=O)N[C@@H](CC(N)=O)C(=O)N[C@H](C(=O)N[C@@H](CCC(N)=O)C(=O)N[C@H](C(=O)N[C@@H](CC(C)C)C(=O)N[C@@H](CCC(=O)O)C(=O)N[C@@H](CCC(N)=O)C(=O)N[C@H](C(N)=O)C(C)C)[C@@H](C)CC)C(C)C)[C@@H](C)CC)C(C)C)C(C)C) [SEQ ID NO 22] | 3% | 4.44 nM |
| Pentanoyl-VLSLD[dV]PIKLK([γGlu-C16 diacid])KILLEQEKQKKQREQAETNKQILAQV-NH2 (SMILES CCCCC(=O)N[C@H](C(=O)N[C@@H](CC(C)C)C(=O)N[C@@H](CO)C(=O)N[C@@H](CC(C)C)C(=O)N[C@@H](CC(=O)O)C(=O)N[C@@H](C(=O)N1CCC[C@H]1C(=O)N[C@H](C(=O)N[C@@H](CCCCN)C(=O)N[C@@H](CC(C)C)C(=O)N[C@@H](CCCCNC(=O)CC[C@H](NC(=O)CCCCCCCCCCCCCCC(=O)O)C(=O)O)C(=O)N[C@@H](CCCCN)C(=O)N[C@H](C(=O)N[C@@H](CC(C)C)C(=O)N[C@@H](CC(C)C)C(=O)N[C@@H](CCC(=O)O)C(=O)N[C@@H](CCC(N)=O)C(=O)N[C@@H](CCC(=O)O)C(=O)N[C@@H](CCCCN)C(=O)N[C@@H](CCC(N)=O)C(=O)N[C@@H](CCCCN)C(=O)N[C@@H](CCCCN)C(=O)N[C@@H](CCC(N)=O)C(=O)N[C@@H](CCCNC(=N)N)C(=O)N[C@@H](CCC(=O)O)C(=O)N[C@@H](CCC(N)=O)C(=O)N[C@@H](C)C(=O)N[C@@H](CCC(=O)O)C(=O)N[C@H](C(=O)N[C@@H](CC(N)=O)C(=O)N[C@@H](CCCCN)C(=O)N[C@@H](CCC(N)=O)C(=O)N[C@H](C(=O)N[C@@H](CC(C)C)C(=O)N[C@@H](C)C(=O)N[C@@H](CCC(N)=O)C(=O)N[C@H](C(N)=O)C(C)C)[C@@H](C)CC)[C@@H](C)O)[C@@H](C)CC)[C@@H](C)CC)C(C)C)C(C)C) [SEQ ID NO 37] | 22% | 0.13 nM |
| Ac-IVLSLD[dV]PIKLK([AEEA-AEEA-γGlu-C18 diacid])KILLEQEKQKKQREQAETNVQILAQV-NH2 (SMILES CC[C@H](C)[C@H](NC(C)=O)C(=O)N[C@H](C(=O)N[C@@H](CC(C)C)C(=O)N[C@@H](CO)C(=O)N[C@@H](CC(C)C)C(=O)N[C@@H](CC(=O)O)C(=O)N[C@@H](C(=O)N1CCC[C@H]1C(=O)N[C@H](C(=O)N[C@@H](CCCCN)C(=O)N[C@@H](CC(C)C)C(=O)N[C@@H](CCCCNC(=O)COCCOCCNC(=O)COCCOCCNC(=O)CC[C@H](NC(=O)CCCCCCCCCCCCCCCCC(=O)O)C(=O)O)C(=O)N[C@@H](CCCCN)C(=O)N[C@H](C(=O)N[C@@H](CC(C)C)C(=O)N[C@@H](CC(C)C)C(=O)N[C@@H](CCC(=O)O)C(=O)N[C@@H](CCC(N)=O)C(=O)N[C@@H](CCC(=O)O)C(=O)N[C@@H](CCCCN)C(=O)N[C@@H](CCC(N)=O)C(=O)N[C@@H](CCCCN)C(=O)N[C@@H](CCCCN)C(=O)N[C@@H](CCC(N)=O)C(=O)N[C@@H](CCCNC(=N)N)C(=O)N[C@@H](CCC(=O)O)C(=O)N[C@@H](CCC(N)=O)C(=O)N[C@@H](C)C(=O)N[C@@H](CCC(=O)O)C(=O)N[C@H](C(=O)N[C@@H](CC(N)=O)C(=O)N[C@H](C(=O)N[C@@H](CCC(N)=O)C(=O)N[C@H](C(=O)N[C@@H](CC(C)C)C(=O)N[C@@H](C)C(=O)N[C@@H](CCC(N)=O)C(=O)N[C@H](C(N)=O)C(C)C)[C@@H](C)CC)C(C)C)[C@@H](C)O)[C@@H](C)CC)[C@@H](C)CC)C(C)C)C(C)C) [SEQ ID NO 103] | 3% | 3.09 nM |
